From PMC4838890, “Dynamic and flexible H3K9me3 bridging via HP1β dimerization establishes a plastic state of condensed chromatin” (Nature Communications, 2016)
pKd: −log10 of the molar value.

How the values were obtained:
HP1β (Homo sapiens) = HP1β (Homo sapiens) (UniProt P83916); details: cited from earlier work
[1] = molecular target: H3K9me3 oligonucleosomes (12-mer oligonucleosomal arrays) (Xenopus laevis); assay: co-sedimentation; chromatin coprecipitation with oligonucleosomes reconstituted to different saturation (0.8:1.0, 1.0:1.0, 1.0:1.2 octamers to positioning sequences); saturating protein concentrations; Coomassie bands quantified in relation to input
[2] = molecular target: H3KC9me3 mononucleosome (Xenopus laevis); assay: ITC; 1.8 mM hHP1β injected into 60 μM H3 peptides, nucleosomes or oligonucleosomal arrays; 25°C; 10 mM triethanolamine pH 7.5, 20 mM NaCl, 0.1 mM EDTA; apparent; one set of identical sites
[3] = molecular target: free H3K9me3 tail peptide; assay: as above
[4] = molecular target: H3KC9me3 mononucleosome (Xenopus laevis); assay: ITC; 1.8 mM hHP1β injected into 60 μM H3 peptides, nucleosomes or oligonucleosomal arrays; 25°C; 10 mM triethanolamine pH 7.5, 150 mM NaCl, 0.1 mM EDTA; apparent; one set of identical sites
[5] = molecular target: H3KC9me3 oligonucleosomes (12-mer oligonucleosomal arrays) (Xenopus laevis); assay: as above
[6] = molecular target: free H3K9me3 tail peptide; assay: as above
[7] = molecular target: H3K9me3 mononucleosome (Xenopus laevis); assay: SPR; biotinylated ligands on streptavidin (SA) chips, hHP1β proteins injected; 298 K; 10 mM triethanolamine pH 7.5, 150 mM NaCl, 0.1 mM EDTA, 1 mM DTT, 0.005% Tween-20; steady-state analysis; apparent
[8] = molecular target: H3K9me3 oligonucleosomes (12-mer oligonucleosomal arrays) (Xenopus laevis)
H3KC9me3 tail peptide [9] = assay: ITC; 1.8 mM hHP1β injected into 60 μM H3 peptides, nucleosomes or oligonucleosomal arrays; 25°C; 10 mM triethanolamine pH 7.5, 20 mM NaCl, 0.1 mM EDTA; apparent; one set of identical sites
H3KC9me3 tail peptide [10] = assay: ITC; 1.8 mM hHP1β injected into 60 μM H3 peptides, nucleosomes or oligonucleosomal arrays; 25°C; 10 mM triethanolamine pH 7.5, 150 mM NaCl, 0.1 mM EDTA; apparent; one set of identical sites

Sequence of human HP1β wild type (hHP1β WT) (P83916 whole entry): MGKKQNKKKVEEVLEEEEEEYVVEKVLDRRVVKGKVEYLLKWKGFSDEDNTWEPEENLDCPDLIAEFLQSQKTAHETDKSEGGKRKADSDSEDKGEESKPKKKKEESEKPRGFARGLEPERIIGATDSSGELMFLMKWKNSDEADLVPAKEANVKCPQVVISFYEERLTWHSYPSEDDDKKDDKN
Sequence of Swi6 (P40381 whole entry): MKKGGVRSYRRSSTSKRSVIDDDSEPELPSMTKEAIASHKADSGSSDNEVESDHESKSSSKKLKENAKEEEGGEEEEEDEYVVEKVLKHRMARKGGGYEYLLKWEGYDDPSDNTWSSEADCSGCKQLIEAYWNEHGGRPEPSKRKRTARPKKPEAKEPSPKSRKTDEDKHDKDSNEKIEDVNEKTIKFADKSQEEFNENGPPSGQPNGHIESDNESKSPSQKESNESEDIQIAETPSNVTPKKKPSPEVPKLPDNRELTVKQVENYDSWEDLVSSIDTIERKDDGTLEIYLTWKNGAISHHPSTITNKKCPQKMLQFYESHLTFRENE
Sequence of HP1β (P83916 whole entry): as the sequence (P83916 whole entry) above

| stoichiometry N (molecules per nucleosome) [1] | pKd [2] | stoichiometry N [2] | pKd [3] | stoichiometry N [3] | pKd [4] | stoichiometry N [4] | pKd [5] | stoichiometry N [5] | stoichiometry N [6] | pKd [7] | Substance | further results |
| --- | --- | --- | --- | --- | --- | --- | --- | --- | --- | --- | --- | --- |
| 4 | – | – | – | – | – | – | – | – | – | – | Swi6 (from UniProt P40381 1-328) (natural protein) | – |
| – | – | – | – | – | – | – | – | – | 1.1 | – | hHP1β chromo domain (CD) (domain or fragment) | – |

The remaining lines, values behind:

| Substance | stoichiometry N (molecules per nucleosome) [1] | pKd [2] | stoichiometry N [2] | pKd [3] | stoichiometry N [3] | pKd [4] | stoichiometry N [4] | pKd [5] | stoichiometry N [5] | stoichiometry N [6] | pKd [7] | further results |
| --- | --- | --- | --- | --- | --- | --- | --- | --- | --- | --- | --- | --- |
| HP1β (from UniProt P83916) | – | – | – | – | – | – | – | – | – | – | – | pKd (HP1β (Homo sapiens)): > 9.00 |
| hHP1β I161A (from UniProt P83916 1-185) (natural protein) | – | 3.65 | 1.1 | 5.96 | 1 | 4.24 | 1.2 | 3.88 | 1.1 | 0.9 | 5.28 | pKd [6]: 5.47 |
| human HP1β wild type (hHP1β WT) (from UniProt P83916 1-185) (natural protein) | 2 | 4.23 | 2.1 | 5.85 | 0.9 | 4.66 | 1.4 | 4.96 | 1.9 | 1 | 6.00 | half-maximal effect in the chromatin precipitation (sedimentation) assay, 150 mM NaCl, 4°C [8]: 0.4 µM; half-maximal effect on the hydrodynamic radius of oligonucleosomes by FCS, 150 mM NaCl, 23°C [8]: 3.5 µM; pKd (H3KC9me3 tail peptide [9]): 4.96; stoichiometry N (H3KC9me3 tail peptide [9]): 1; pKd (H3KC9me3 tail peptide [10]): 4.68; stoichiometry N (H3KC9me3 tail peptide [10]): 1 |
